Where two headings read alike, the source gives them in different places.
Tests used:
[1] = target: ubiquitin-7-amino-4-methyl coumarin (Ub-AMC) (UniProt P0CG47)
[2] = target: ubiquitin-7-amino-4-methyl coumarin (Ub-AMC) (UniProt P0CG47); remark: listed apart in the source

| Substance | DUB activity in vitro with Ub-AMC as substrate (Kapp, percent of WT) [1] | DUB activity in vitro with Ub-AMC as substrate (Kapp, percent of WT) [2] |
| --- | --- | --- |
| TYMV PRO/DUB E759A (enzyme) | 137 % of WT |  |
| TYMV PRO/DUB N760A (enzyme) | 135 % of WT |  |
| TYMV PRO/DUB N760A/R844A (enzyme) |  | 344 % of WT |
| TYMV PRO/DUB R844A (enzyme) |  | 320 % of WT |
| TYMV PRO/DUB T763A (enzyme) | 89 % of WT |  |
